Measurements as given in patent US6537804B1, “BCR-ABL directed compositions and uses for inhibiting Philadelphia chromesome stimulated cell growth” (Board of Regents, The University of Texas Systems, priority 1995, dated 2003).

Columns and labels:
Type in all cases: biochemical
casein = experiment: Immune complex kinase assay of mutant P160 BCR, transphosphorylation of casein
Text: (§1) Mutant forms of P160^BCR were expressed in COS-1 cells and tested for serine/threonine kinase activities in immune complex kinase assays.
(§2) Using the intensities of the P160^BCR bands as an indication of the amount of active P160^BCR in the immune complex and the intensities of the casein bands as a measure of transphosphorylation activity, the transphosphorylation activity of the Y360F Bcr mutant was reduced about sevenfold, compared with that of the wild type. Similarly, the Y360F Bcr mutant was also defective in transphosphorylating another exogenous substrate, histone H1.
The amounts of Bcr within these immune complexes were quantitated in two ways. In a first method, the amounts of Bcr mutants would be underestimated by about 10%, compared with that of the wild type. On the basis of these measurements, the specific activity of transkinase activity (casein intensity/P160^BCR intensity) of the Y360F Bcr mutant (0.03) was reduced more than 20-fold in this study, compared with that of the wild type.
The second method of estimating the amounts of P160^BCR in immune complexes involved the Western blotting of these immune complexes with an anti-Bcr antibody. The specific activity of Y360F was reduced by about sixfold. […] By using autophosphorylation of the Bcr protein as a measure of its relative amount, the reduction of Bcr's transkinase by the Y360F mutation was about sevenfold, confirming the results obtained by the Western blot method.

histone H1 = experiment: Immune complex kinase assay of mutant P160 BCR, transphosphorylation of histone H1
Text: as §1, §2

P160^BCR = target: T1, P160^BCR (Homo sapiens, UniProt P11274, Y360F); experiment: Immune complex kinase assay of mutant P160 BCR, autophosphorylation
T1 construct: The original human full length BCR cDNAs were obtained from Dr. John Groffen; expressed in transfected cells; host or cells: COS-1
T1 sequence (P11274 1-1271 Y360F): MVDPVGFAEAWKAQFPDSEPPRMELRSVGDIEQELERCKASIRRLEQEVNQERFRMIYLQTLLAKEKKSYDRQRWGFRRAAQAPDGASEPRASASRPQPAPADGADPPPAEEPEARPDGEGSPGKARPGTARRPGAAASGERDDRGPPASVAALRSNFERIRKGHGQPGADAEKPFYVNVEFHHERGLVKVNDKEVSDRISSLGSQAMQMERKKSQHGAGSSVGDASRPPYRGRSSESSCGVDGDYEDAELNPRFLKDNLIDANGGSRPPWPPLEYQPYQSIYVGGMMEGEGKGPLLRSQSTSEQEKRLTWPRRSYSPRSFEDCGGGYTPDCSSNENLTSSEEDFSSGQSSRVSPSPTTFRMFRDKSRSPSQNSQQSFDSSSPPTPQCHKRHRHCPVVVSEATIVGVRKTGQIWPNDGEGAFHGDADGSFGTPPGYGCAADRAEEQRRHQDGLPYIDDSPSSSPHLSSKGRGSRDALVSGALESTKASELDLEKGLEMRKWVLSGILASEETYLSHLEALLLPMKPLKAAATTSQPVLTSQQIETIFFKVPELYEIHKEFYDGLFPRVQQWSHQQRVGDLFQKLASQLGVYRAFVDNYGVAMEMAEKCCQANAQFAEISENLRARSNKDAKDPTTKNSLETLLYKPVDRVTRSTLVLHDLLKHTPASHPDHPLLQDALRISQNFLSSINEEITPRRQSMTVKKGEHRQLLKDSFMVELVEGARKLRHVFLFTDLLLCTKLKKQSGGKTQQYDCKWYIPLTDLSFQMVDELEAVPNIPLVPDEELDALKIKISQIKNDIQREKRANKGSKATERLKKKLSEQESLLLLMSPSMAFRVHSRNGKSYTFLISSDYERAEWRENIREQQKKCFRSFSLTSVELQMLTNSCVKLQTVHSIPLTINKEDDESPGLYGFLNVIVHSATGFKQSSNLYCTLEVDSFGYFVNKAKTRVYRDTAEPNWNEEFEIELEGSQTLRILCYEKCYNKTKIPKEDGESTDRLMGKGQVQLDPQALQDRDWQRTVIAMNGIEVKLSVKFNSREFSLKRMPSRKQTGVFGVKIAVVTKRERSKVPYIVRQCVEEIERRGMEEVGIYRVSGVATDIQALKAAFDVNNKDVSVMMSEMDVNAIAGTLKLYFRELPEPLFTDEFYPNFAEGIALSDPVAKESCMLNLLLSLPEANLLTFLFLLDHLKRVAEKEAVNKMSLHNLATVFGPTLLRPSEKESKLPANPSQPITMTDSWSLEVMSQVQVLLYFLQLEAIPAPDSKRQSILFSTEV
Text: as §1

[1] = first method of quantitating Bcr in immune complexes

B1: Y360F Bcr mutant: P160 BCR with tyrosine 360 to phenylalanine mutation, expressed in COS-1 cells (protein, UniProt P11274 1-1271, looked up, variant Y360F)
Breakpoint cluster region …: T1 sequence (P11274 1-1271 Y360F)
Reduction of specific activity compared with wild type (casein; P160 BCR amount by Western blotting of immune complexes with anti-Bcr antibody): about sixfold | Reduction of transphosphorylation activity compared with wild type, relative to P160 BCR autophosphorylation band intensity (casein; casein band intensity / P160 BCR band intensity): about sevenfold | Reduction of specific transkinase activity compared with wild type (casein; [1]): more than 20 fold | Specific activity of transkinase activity (casein intensity/P160^BCR intensity) (casein; [1]): 0.03 | Ability to transphosphorylate casein compared with wild-type Bcr (casein; mutant P160 BCR expressed in COS-1 cells): severely inhibited | Transphosphorylation of histone H1 (histone H1): defective | P160^BCR autophosphorylation (P160^BCR): not detectably altered
